Assay results as given in US20150218534A1, “MODIFIED DNA POLYMERASE” (TOYOBO CO., LTD., priority 2012, published 2015).

How the values were obtained:
[1] = tested on: human genomic DNA (about 1.3 kb) with dUTP added; assay: Evaluation of uracil (dUTP) sensitivity by PCR with dUTP added to the reaction; format: biochemical; settings: for Evaluation of dUTP resisitance on a 11-point scale: closer to 0 = stronger sensitivity to dUTP, closer to 10 = lower sensitivity, summary of Examples 1 to 3; for dUTP resistance: dUTP added to 0.5, 5, 50, 100, 200 μM, about 1.3 kb, 30 cycles, 1 U enzyme; for PCR products on addition of dUTP: some amount of dUTP added
Outline: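 Uracil sensitivity is judged by whether a roughly 1.3 kb band still appears on ethidium bromide-stained agarose gel. Tolerated dUTP was tested at final 0.5 to 200 μM (0.5, 5, 50, 100, 200 μM), using 10 ng human genomic DNA, 1 U enzyme, 0.2 mM dNTPs and 1.5 mM MgSO4 in KOD-Plus-Ver. 2 buffer. Cycling: 94° C for 30 s, then 30 cycles of 98° C/65° C/68° C.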

[2] = tested on: 482 bp of human β-globin; assay: PCR amplification of 482 bp of human β-globin with dUTP in place of dTTP; format: biochemical; set-up: key to Results of PCR in the presence of dUTP 481 bp: A: Amplified; B: Amplified (faint band); C: Not amplified; settings: dTTP replaced by dUTP, 35 cycles
Outline: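 482 bp human β-globin amplified from 10 ng human genomic DNA with 1 U enzyme premixed with KOD antibody, using 0.2 mM dNTPs with either dTTP or dUTP, 1.5 mM MgSO4, 15 pmol primers. Cycling: 94 °C 2 min, then 35 cycles of 98 °C 10 s, 68 °C 1 min; products analysed by MultiNA DNA-1000 microchip electrophoresis.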

Row | Molecule | Evaluation of dUTP resisitance on a 11-point scale [1] | dUTP resistance [1] [µM] | PCR products on addition of dUTP [1] | Results of PCR in the presence of dUTP 481 bp [2]
1 | KOD V93K: modified KOD DNA polymerase with V93K (protein, listed as Thermococcus kodakaraensis) MILDTDYITEDGKPVIRIFKKENGEFKIEYDRTFEPYFYALLKDDSAIEEVKKITAERHGTVVTVKRVEKVQKKFLGRPVEVWKLYFTHPQDKPAIRDKIREHPAVIDIYEYDIPFAKRYLIDKGLVPMEGDEELKMLAFDIETLYHEGEEFAEGPILMISYADEEGARVITWKNVDLPYVDVVSTEREMIKRFLRVVKEKDPDVLITYNGDNFDFAYLKKRCEKLGINFALGRDGSEPKIQRMGDRFAVEVKGRIHFDLYPVIRRTINLPTYTLEAVYEAVFGQPKEKVYAEEITTAWETGENLERVARYSMEDAKVTYELGKEFLPMEAQLSRLIGQSLWDVSRSSTGNLVEWFLLRKAYERNELAPNKPDEKELARRRQSYEGGYVKEPERGLWENIVYLDFRSLYPSIIITHNVSPDTLNREGCKEYDVAPQVGHRFCKDFPGFIPSLLGDLLEERQKIKKKMKATIDPIERKLLDYRQRAIKILANSYYGYYGYARARWYCKECAESVTAWGREYITMTIKEIEEKYGFKVIYSDTDGFFATIPGADAETVKKKAMEFLKYINAKLPGALELEYEGFYKRGFFVTKKKYAVIDEEGKITTRGLEIVRRDWSEIAKETQARVLEALLKDGDVEKAVRIVKEVTEKLSKYEVPPEKLVIHEQITRDLKDYKATGPHVAVAKRLAARGVKIRPGTVISYIVLKGSGRIGDRAIPFDEFDPTKHKYDAEYYIENQVLPAVERILRAFGYRKEDLRYQKTRQVGLSAWLKPKGT | 6 | >200 | PCR products were confirmed | A
2 | KOD P36H/V93K: modified KOD DNA polymerase with P36H and V93K (protein, listed as Thermococcus kodakaraensis) MILDTDYITEDGKPVIRIFKKENGEFKIEYDRTFEHYFYALLKDDSAIEEVKKITAERHGTVVTVKRVEKVQKKFLGRPVEVWKLYFTHPQDKPAIRDKIREHPAVIDIYEYDIPFAKRYLIDKGLVPMEGDEELKMLAFDIETLYHEGEEFAEGPILMISYADEEGARVITWKNVDLPYVDVVSTEREMIKRFLRVVKEKDPDVLITYNGDNFDFAYLKKRCEKLGINFALGRDGSEPKIQRMGDRFAVEVKGRIHFDLYPVIRRTINLPTYTLEAVYEAVFGQPKEKVYAEEITTAWETGENLERVARYSMEDAKVTYELGKEFLPMEAQLSRLIGQSLWDVSRSSTGNLVEWFLLRKAYERNELAPNKPDEKELARRRQSYEGGYVKEPERGLWENIVYLDFRSLYPSIIITHNVSPDTLNREGCKEYDVAPQVGHRFCKDFPGFIPSLLGDLLEERQKIKKKMKATIDPIERKLLDYRQRAIKILANSYYGYYGYARARWYCKECAESVTAWGREYITMTIKEIEEKYGFKVIYSDTDGFFATIPGADAETVKKKAMEFLKYINAKLPGALELEYEGFYKRGFFVTKKKYAVIDEEGKITTRGLEIVRRDWSEIAKETQARVLEALLKDGDVEKAVRIVKEVTEKLSKYEVPPEKLVIHEQITRDLKDYKATGPHVAVAKRLAARGVKIRPGTVISYIVLKGSGRIGDRAIPFDEFDPTKHKYDAEYYIENQVLPAVERILRAFGYRKEDLRYQKTRQVGLSAWLKPKGT | 7 | >200 |  | A
3 | KOD V93R: modified KOD DNA polymerase with V93R (protein, listed as Thermococcus kodakaraensis) MILDTDYITEDGKPVIRIFKKENGEFKIEYDRTFEPYFYALLKDDSAIEEVKKITAERHGTVVTVKRVEKVQKKFLGRPVEVWKLYFTHPQDRPAIRDKIREHPAVIDIYEYDIPFAKRYLIDKGLVPMEGDEELKMLAFDIETLYHEGEEFAEGPILMISYADEEGARVITWKNVDLPYVDVVSTEREMIKRFLRVVKEKDPDVLITYNGDNFDFAYLKKRCEKLGINFALGRDGSEPKIQRMGDRFAVEVKGRIHFDLYPVIRRTINLPTYTLEAVYEAVFGQPKEKVYAEEITTAWETGENLERVARYSMEDAKVTYELGKEFLPMEAQLSRLIGQSLWDVSRSSTGNLVEWFLLRKAYERNELAPNKPDEKELARRRQSYEGGYVKEPERGLWENIVYLDFRSLYPSIIITHNVSPDTLNREGCKEYDVAPQVGHRFCKDFPGFIPSLLGDLLEERQKIKKKMKATIDPIERKLLDYRQRAIKILANSYYGYYGYARARWYCKECAESVTAWGREYITMTIKEIEEKYGFKVIYSDTDGFFATIPGADAETVKKKAMEFLKYINAKLPGALELEYEGFYKRGFFVTKKKYAVIDEEGKITTRGLEIVRRDWSEIAKETQARVLEALLKDGDVEKAVRIVKEVTEKLSKYEVPPEKLVIHEQITRDLKDYKATGPHVAVAKRLAARGVKIRPGTVISYIVLKGSGRIGDRAIPFDEFDPTKHKYDAEYYIENQVLPAVERILRAFGYRKEDLRYQKTRQVGLSAWLKPKGT | 5 | >200 | PCR products were confirmed | A
